# Measurements as given in patent CN106905431A (XUHUA (SHANGHAI) BIOLOGICAL RES AND DEV CENTER CO LTD, dated 2017).
# Assays:
# [1] = target: T1, 人补体D因子 (human complement Factor D) (human, UniProt P00746 26-253); assay: SPR (Biacore T200), Fab captured on CM5 chip
# T1 construct: Bought protein; also called 人D因子; human CFD
# [2] = target: T1, 人补体D因子 (human complement Factor D); assay: SPR (Biacore T200), full-length antibody captured by anti-human IgG Fc on CM5, antigen in flow, 1:1 model
# [3] = target: T1, 人补体D因子 (human complement Factor D); assay: ELISA on coated human Factor D and BLI
# T1 sequence (P00746 26-253 limits assumed): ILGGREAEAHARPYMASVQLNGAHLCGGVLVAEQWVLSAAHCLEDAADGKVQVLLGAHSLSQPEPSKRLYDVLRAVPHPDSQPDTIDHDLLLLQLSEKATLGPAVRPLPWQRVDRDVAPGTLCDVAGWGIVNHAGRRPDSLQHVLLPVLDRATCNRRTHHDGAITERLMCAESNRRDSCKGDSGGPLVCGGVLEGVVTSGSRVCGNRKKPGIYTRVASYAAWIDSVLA
Binder,binding result [1],binding result [2],also measured
"人源化Fab克隆 AS01237 (Fab, V domains shown, Fab fragment with a SASA tag, as screened on Biacore; also called AS01237 Fab) VH: EVQLVQSGAEVKKPGASVKVSCKASGYTFTSYVINWVRQAPGQGLEWMGYINPYIDDSEYNEKFEGRVTMTRNTSISTAYMELSSLRSEDTAVYYCAREGPAFAYWGQGTLVTVSS VL: DIVMTQTPLSLSVTPGQPASISCRSSQNLVHSNGDTYLEWYQQKPGQPPKLLIYKVSTRFSGVPDRFSGSGSGTDFTLKISRVEAEDVGVYYCFQGSHVPPTFGQGTKVEIK",binds,–,–
"抗人D因子人源化抗体 AS01237 (全长抗体) (antibody, V domains shown, Full-length antibody from pTT5 in HEK293, protein A purified, captured by anti-human IgG Fc) VH: EVQLVQSGAEVKKPGASVKVSCKASGYTFTSYVINWVRQAPGQGLEWMGYINPYIDDSEYNEKFEGRVTMTRNTSISTAYMELSSLRSEDTAVYYCAREGPAFAYWGQGTLVTVSS VL: DIVMTQTPLSLSVTPGQPASISCRSSQNLVHSNGDTYLEWYQQKPGQPPKLLIYKVSTRFSGVPDRFSGSGSGTDFTLKISRVEAEDVGVYYCFQGSHVPPTFGQGTKVEIK",–,binds,–
"人源化Fab克隆 AS01326 (Fab, V domains shown, Fab fragment with a SASA tag, as screened on Biacore; also called AS01326 Fab) VH: QVQLVQSGSELKKPGASVKVSCKASGYTFTSYVINWVRQMPGKGLEWMGYINPYIDDSEYNEKFEGRVTMTRDTSISTAYMELSRLRSDDTAVYYCAREGPAFAYWGQGTLVTVSS VL: DVVMTQSPLSLPVTLGQPASISCRSSQNLVHSNGDTYLEWYLQKPGQPPQLLIYKVSTRFSGVPDRFSGSGSGTDFTLKISRVEAEDFGVYYCFQGSHVPPTFGQGTKVEIK",binds,–,–
"抗人D因子人源化抗体 AS01326 (全长抗体) (antibody, V domains shown, Full-length antibody from pTT5 in HEK293, protein A purified, captured by anti-human IgG Fc) VH: QVQLVQSGSELKKPGASVKVSCKASGYTFTSYVINWVRQMPGKGLEWMGYINPYIDDSEYNEKFEGRVTMTRDTSISTAYMELSRLRSDDTAVYYCAREGPAFAYWGQGTLVTVSS VL: DVVMTQSPLSLPVTLGQPASISCRSSQNLVHSNGDTYLEWYLQKPGQPPQLLIYKVSTRFSGVPDRFSGSGSGTDFTLKISRVEAEDFGVYYCFQGSHVPPTFGQGTKVEIK",–,binds,–
"人源化Fab克隆 AS01328 (Fab, V domains shown, Fab fragment with a SASA tag, as screened on Biacore; also called AS01328 Fab) VH: QVQLVQSGSELKKPGASVKVSCKASGYTFTSYVINWVRQATGQGLEWMGYINPYIDDSEYNEKFEGRVTMTRDTSTSTVYMELSSLRSEDTAVYYCAREGPAFAYWGQGTLVTVSS VL: DIVMTQTPLSLSVTPGEPASISCRSSQNLVHSNGDTYLEWYLQKPGQAPRLLIYKVSTRFSGVPDRFSGSGSGTDFTLKISRVEAEDVGVYYCFQGSHVPPTFGQGTKVEIK",binds,–,–
"抗人D因子人源化抗体 AS01328 (全长抗体) (antibody, V domains shown, Full-length antibody from pTT5 in HEK293, protein A purified, captured by anti-human IgG Fc) VH: QVQLVQSGSELKKPGASVKVSCKASGYTFTSYVINWVRQATGQGLEWMGYINPYIDDSEYNEKFEGRVTMTRDTSTSTVYMELSSLRSEDTAVYYCAREGPAFAYWGQGTLVTVSS VL: DIVMTQTPLSLSVTPGEPASISCRSSQNLVHSNGDTYLEWYLQKPGQAPRLLIYKVSTRFSGVPDRFSGSGSGTDFTLKISRVEAEDVGVYYCFQGSHVPPTFGQGTKVEIK",–,binds,–
"抗人D因子鼠源单克隆抗体 Mab25 (antibody, V domains shown, Mouse hybridoma antibody; The heavy chain was cloned with a primer for the mouse IgG1 constant region; also called 杂交瘤细胞株25) VH: AVQLQQSGPELVKPGASVKMSCKASGYTFTSYVINWMKQKPGQGLEWIGYINPYIDDSEYNEKFEGKATLTSDKTSSIAYMELSSLTSEDSAVYYCAREGPAFAYWGQGTLVTVSA VL: DILLTQTPLSLPVSLGDHASVSCRSSQNLVHSNGDTYLEWYLQKPGQSPKLLIYKVSTRFSGVPDRFSGSGSGTDFTLKISRVEAEDLGVYYCFQGSHVPPTFGGGTKLEIK",–,–,binding result [3]: binds
"抗人D因子嵌合抗体 (Mab25的嵌合抗体, 全长) (antibody, V domains shown, Chimeric form of Mab25 (mouse variable regions on human constant regions), compared with the humanised antibodies in the Biacore assay) VH: AVQLQQSGPELVKPGASVKMSCKASGYTFTSYVINWMKQKPGQGLEWIGYINPYIDDSEYNEKFEGKATLTSDKTSSIAYMELSSLTSEDSAVYYCAREGPAFAYWGQGTLVTVSA VL: DILLTQTPLSLPVSLGDHASVSCRSSQNLVHSNGDTYLEWYLQKPGQSPKLLIYKVSTRFSGVPDRFSGSGSGTDFTLKISRVEAEDLGVYYCFQGSHVPPTFGGGTKLEIK",–,binds,–
